Measured values from the DeepSol protein solubility set.

Experiment: soluble on expression in E. coli; label from the status in PepcDB or PDB records

Row | Sequence | soluble on expression in E. coli
1 | MHRVEETRRIAPEEGNPVLISQIKDASGNITVAVREEGGQARAVKGAASVYALAMEAANGGKSLADVVSAHGLGDAVDLDKAYAEGRFLPPITHPDPAHLHLTGTGLTHLGSAATRDSMHKKTTEAAEESLTDSMKMFRMGLENGKPKAGEKGVQPEWFYKGNGHVAAAPGAALTSPSFALDGGEEPEMAGIYVISDKGEAVRIGFAVSNEFSDHVTERVNYLYLAHSKLRPASFGPEIRVGAAPSDIRGTSRIRRGDKVIFEKPFVSGEDNMSHTFANLEYHHFKYGLFRAPGDVHVHMFGTATLSFAEGIKPEAGDVFEIEAAGFGLPLKNPLAVDSEEEIVVRQI | not soluble
2 | MHSFPPLLLLLFWGVVSHSFPATLETQEQDVDLVQKYLEKYYNLKNDGRQVEKRRNSGPVVEKLKQMQEFFGLKVTGKPDAETLKVMKQPRCGVPDVAQFVLTEGNPRWEQTHLTYRIENYTPDLPRADVDHAIEKAFQLWSNVTPLTFTKVSEGQADIMISFVRGDHRDNSPFDGPGGNLAHAFQPGPGIGGDAHFDEDERWTNNFREYNLHRVAAHELGHSLGLSHSTDIGALMYPSYTFSGDVQLAQDDIDGIQAIYGRSQNPVQPIGPQTPKACDSKLTFDAITTIRGEVMFFKDRFYMRTNPFYPEVELNFISVFWPQLPNGLEAAYEFADRDEVRFFKGNKYWAVQGQNVLHGYPKDIYSSFGFPRTVKHIDAALSEENTGKTYFFVANKYWRYDEYKRSMDPGYPKMIAHDFPGIGHKVDAVFMKDGFFYFFHGTRQYKFDPKTKRILTLQKANSWFNCRKN | soluble
3 | MHSMKLLVTGGMGFIGSNFIRYILEKHPDWEVINIDKLGYGSNPANLKDLEDDPRYTFVKGDVADYELVKELVRKVDGVVHLAAESHVDRSISSPEIFLHSNVIGTYTLLESIRRENPEVRFVHVSTDEVYGDILKGSFTENDRLMPSSPYSATKAASDMLVLGWTRTYNLNASITRCTNNYGPYQFPEKLIPKTIIRASLGLKIPIYGTGKNVRDWLYVEDHVRAIELVLLKGESREIYNISAGEEKTNLEVVKIILRLMGKGEELIELVEDRPGHDLRYSLDSWKITRDLKWRPKYTFDEGIKKTIDWYLKNEWWWKPLVDERILHPTPWKLKW | soluble
4 | MHTFFVTSTGFGVGLTSTSLGLVRALEYGGLKAGFYKPVAQQHPGNSKLEYSTELISRTLGLAPPAPLPLATVEHLLGEGQIDDLMEDIVRRFKQASEGYDVMVVEGMVPTRHVSYASRVNTRLASSLDADIILVSSAEDDALQAITDRIEIQAQFFGGAQNPRLLGVILNKIRTDHSDDLFEQLKNHSTLFHQSSFQILGCIPWEDSLNAPRMADVVTQLQAQ | not soluble
5 | MHTFILLLTVLCAGAYTQFTANGQAAILNVHNTLRSRIAKGTYVARGTVKHAASDMLKMKWLRSLATSSQIYANRCPTGHSNMIGVGENLYWYWTSGTITNIDQFGAMASAAWEKEFQDYGWSSNTLTMSLFNSGVGHATQMAWAKTNLIGCGVKNCGMDTNGMNKVAVVCHYQPQGNYLNQNIYTSGTTCSKCPAGTSCEAATGLCV | not soluble
6 | MHTNMWVVDNVVERKKYYPQLQEAAKLLRENEAIAFPTETVYGLGANAMNDEAIAKIFEAKGRPSDNPLIVHIGTKSQLDGIVKEIPPVAEKLMEHFWPGPLTIILPRKEGISEKVTAGLHTVGVRMPDHPVALALIEEANVPVAAPSANRSGRPSPTLASHVYEDLNEKIAGIVDGGATGVGVESTVIDCTSAVPTILRPGGITKEQLEAVIGTVSLDPALKDEKEKPKSPGMKYTHYAPKAPLSIVEGSREFIQRLVDEKKEEGFKVGVLTTEEYHHIYNADVVLSCGVRSDLASVATKLYDVLRTFDASEVDVIFSESFPNEGIGNAIMNRLTKAAGHHIITE | not soluble
7 | MHVLTLDLAPVTPKDAPLLHRVFHLSPSYFALIGMELPTLEDVVRDLQTLEVDPRRRAFLLFLGQEPVGYLDAKLGYPEAEDATLSLLLIREDHQGRGLGRQALERFAAGLDGVRRLYAVVYGHNPKAKAFFQAQGFRYVK | not soluble
8 | MIAILTDKPNVGKEIARILGAHTREDGYMSGNGYMVTWTFGNMLSLAMPKDYGMDRPERGDFPINPAPFRLMVKHIKTDTGWIPDINAVLQLKVIEKVFDACESIIAATDASREGEMVFRYLYRYLECRKSYRRLWISSLTDEAVLEGMDNLRPGSLYDHMFLAADSRNKADWVLGLNASYALCQATGTGNNSLGRVQTPILAAISSRYRERENHIATDTFPVFISLCKNNTLLKMRCTEEFTDREAAARLYSDCKLAGHARVTAVSRQVREIEPPALYNLTELQKDANNYYGMTAGKSLEIAQKLYEKKLISYPRTAGRFLPRDVYDKLPRIMEKILNRKEFRPYVRSMGINIFDLPDKVVDEGQAAEHHAIIITDTYPEGLNREEMQLYMMIIGRMLEAFMPVCRAEYTTVDAVCAARNFRCHACRIIEKGWFGIFERESVIAGREYGFSPIPQLENGETAAVTGCSLIHRKDLTVSAYTDAELITYMDTAGLGTAATRTGILQTLIDRKYVRYSGKYIIPTRKGLYIYETVRNMKIAETALTSGWEAQLARMERGKLTQEEFMKGVLKLSREVTEDIFRKCER | not soluble
9 | MIALDQHLTEHKKDITQQWLEVCTSNGSWLYSAKDQQKLGQKLKDQHELLVTIVAKSLRKEDVEDELNRWSLQCARDRAVHEVTVTQSFGQFNTFRHIMFEWIHKFSEASSQDISIQEFYEWSRILNQNIDEIIEVFTEEYHQVTMIQLNAQKEMINELSAPIMPITDGIGILPLVGEIDTHRARTILESVLEQCSALKLSYLFLDISGVPIVDTMVAYQIFKVIDSTKLLGIETIISGIRPEIAQTVVKLGLDFSNVKTEQSLAKALANKGFKIKEC | not soluble
10 | MIALKMFYTEETYEQFFDYGLDYVIDASDTICYKIHLMKECLKRDIPLISSMGAANKTDPTRFQIADISKTHTDPIAKVVRTKLRKEGIKKGVQVIFSDESPIVIREDVRKEVGNDEAKIRKAKMPPSSNAFVPSVAGLIMGGHVVMDLLKDIEIKRVKDK | not soluble
11 | MIANHVSLLIMGIDENQERQKEYNGAFHTDALLLATFNKDDKTVKLTSIPRDTYTYVPVEKKTDNITHAYGSGIVNNGKDGGPQASVEAVEQLLQVPVDYFVKFNFGSFTKIVDGLDGIEVDVPVEFTEQNSKDEPDAIHLKKGLQKLNGEEALALARTRHIDSDAMRGQRQQLVIESILSKLKSVGSITKLEKIVEAVDDDFKTNLVMDDILSFYKYGLNGSVEKIQLAGDDLYLPNGPNGQRVYYYNPNKKDLQSLSNTLRTHLGLSEKQIEENLEHHHHHH | soluble
12 | MIATTSQQSFNLLRTLAVQKASDFADEFYIYMLKDQEASLFLSSQQVHDRLHGSMSKWIADILTNTGDSLADLINHQKKIGQIHARIGIPVDLVERGARRLKWHLYEHIAQVADDKALCFDAMRFASISMDIAIEIMSKTYSQSHDLEHHHHHH | not soluble
13 | MICYEYINDYIRKTIKKNEGFLAELEEFAKENHVPIVHPEVASLLRVIGLTLRPSRVLEVGTAIGYSAILFSTFLEPGGRIDTIDRYELMLEKARANVKKAGLQDVINIIEGDALEVLKCLEHKYDMIFLDAAKGQYPEFLPECLRLLRSGGLLISDNILYKGMVAKDELVVRRKKTIVKRLRNYLETICNTDELETSILPVGDGLAISFKK | not soluble
14 | MIDSANRADVFLRKPAPVAPELQHEVEQFYYWEAKLLNDRRFEEWFALLAEDIHYFMPIRTTRIMRDSRLEYSGSREYAHFDDDATMMKGRLRKITSDVSWSENPASRTRHLVSNVMIVGAEAEGEYEISSAFIVYRNRLERQLDIFAGERRDTLRRNTSEAGFEIVNRTILIDQSTILANNLSFFF | soluble
15 | MIEFDNLTYLHGKPQGTGLLKANPEDFVVVEDLGFEPDGEGEHILVRILKNGCNTRFVADALAKFLKIHSREVSFAGQKDKHAVTEQWLCARVPGKEMPDLSAFQLEGCQVLEYARHKRKLRLGALKGNAFTLVLREVSNRDDVEQRLIDICVKGVPNYFGAQRFGIGGSNLQGALRWAQTNTPVRDRNKRSFWLSAARSALFNQIVAERLKKADVNQVVDGDALQLAGRGSWFVATTEELAELQRRVNDKELMITAALPGSGEWGTQREALAFEQAAVAAETELQALLVREKVEAARRAMLLYPQQLSWNWWDDVTVEIRFWLPAGSFATSVVRELINTTGDYAHIAELEHHHHHH | soluble
